Experimental data published in article PMC12325603 (Nature Communications, 2025).

Target: the molecule itself
Assay: cryo-electron tomography

B1: Munc13C K1494D/K1495D/K1500D (trimer 3xD) (domain or fragment)
chain: not shown
- stoichiometry N: 6
